B1: non-specific serine/threonine protein kinase, O49003 (parent)
chain: MASKGAGGGGGGHEEPQRPKQQLPRDSRGSLEVFNPSSSSAAVEPPSAFRPAARSASPFIEEATGGIEDVGKATQRAAEWGLVLQTNEQTGRPQGVSARSSGGGGSARSSSDDKAVAGAIPRVSEELRAALSAFQQTFVVSDASRPGHPIMYASAGFFNMTGYTSKEVVGRNCRFLQGSGTDPAEIAKIRQALANGSNYCGRVLNYKKDGTAFWNLLTIAPIKDEEGRVLKFIGMQVEVSKYTEGNKDTVVRPNGLPESLIKYDARQKDQARSSVSELLLAIKNPRSLSESTNSTFKRKSQESVGALTGDRPGKRSSESGSRRNSKSGARTSLQKISEVPERGSKSRKSGLYSLMSLLGMGPGNIEKDMLKPRDEDPLLDSDDERPESFDDELRRKEMRRGIDLATTLERIEKNFVITDPRLPDNPIIFASDSFLQLTEYSREEILGRNCRFLQGPETDRATVRKIRDAIDNQTEVTVQLINYTKSGKKFWNLFHLQPMRDQKGDVQYFIGVQLDGTEHVRDAAEREGVMLIKKTAENIDEAAKELPDANLRPEDLWANHSKVVLPKPHMKDSASWRAIQKVLEGGENIDLKHFRPVKPLGSGDTGSVHLVELLNTGEYFAMKAMDKNVMLNRNKVHRANAEREILDMLDHPFLPTLYASFQTKTHICLITDYYPGGELFLLLDRQPLKVLREDAVRFYAAEVVIALEYLHCQGIIYRDLKPENILLHRDGHISLTDFDLSCLTSCRPQVFLPEEANKKSRRKSRSSPIFFAEPMRASNSFVGTEEYIAPEIITGAGHTSAVDWWALGILLYEMLYGYTPFRGKTRQRTFANILHKDIRFPASISVSLPARQLIYRLLHRDPSNRLGSYEGSNEIKEHPFFRGINWALVRGTAPPKLDAPLFPDDTDKGMGDAAAADTHTDMF

Variants of: B1
Settings: Avena sativa; pH 4; Thermal; CD; Sodium acetate; transition: 2; reversible: partially reversible; structure 2V0U; whole UniProt chain shown
For C450A, the Tm was 51 °C and the “change of melting temperature, mutant - wild type (higher = more stable)” value (shortened to “change of melting temperature, mutant”) was 0.7 °C.

Same assay, conditions: Avena sativa; pH 4; Thermal; DSC; Sodium acetate; transition: 2; reversible: partially reversible; structure 2V0U; whole UniProt chain shown
For C450A, the Tm was 50.7 °C and the “change of melting temperature, mutant” value was 2.7 °C.

Same assay, conditions: Avena sativa; pH 4; Thermal; fluorescence; Sodium acetate; transition: 2; reversible: partially reversible; structure 2V0U; whole UniProt chain shown
For C450A, the Tm was 49.9 °C and the “change of melting temperature, mutant” value was 2.8 °C.

Same assay, conditions: Avena sativa; pH 7; 20 °C; Urea; fluorescence; sodium phosphate; transition: 2; reversible: no; structure 2V0U; whole UniProt chain shown
In the case of C450A, the “ddG of mutation (higher = less stable)” value is reported as -2.01 kJ/mol, the denaturant m value is reported as 1.67 kcal/mol/M and the “denaturant midpoint (higher = more stable)” value is reported as 3.39 M. It also gave an unfolding free energy of 25.4 kJ/mol.

Same assay, conditions: Avena sativa; pH 7; Thermal; CD; sodium phosphate; transition: 2; reversible: partially reversible; structure 2V0U; whole UniProt chain shown
In the case of C450A, the Tm is reported as 64.4 °C and the “change of melting temperature, mutant” value is reported as 3.3 °C.

Same assay, conditions: Avena sativa; pH 7; Thermal; DSC; sodium phosphate; transition: 2; reversible: partially reversible; structure 2V0U; whole UniProt chain shown
In the case of C450A, the Tm is reported as 65 °C and the “change of melting temperature, mutant” value is reported as 3.1 °C.

Same assay, conditions: Avena sativa; pH 7; Thermal; fluorescence; sodium phosphate; transition: 2; reversible: partially reversible; structure 2V0U; whole UniProt chain shown
In the case of C450A, the Tm is reported as 63.6 °C and the “change of melting temperature, mutant” value is reported as 3.8 °C.

Same assay, conditions: Avena sativa; pH 8; Thermal; CD; sodium phosphate; transition: 2; reversible: partially reversible; structure 2V0U; whole UniProt chain shown
In the case of C450A, the Tm is reported as 64.4 °C and the “change of melting temperature, mutant” value is reported as 2.6 °C.

Same assay, conditions: Avena sativa; pH 8; Thermal; DSC; sodium phosphate; transition: 2; reversible: partially reversible; structure 2V0U; whole UniProt chain shown
For C450A, the Tm was 63.8 °C and the “change of melting temperature, mutant” value was 3.7 °C.

Same assay, conditions: Avena sativa; pH 8; Thermal; fluorescence; sodium phosphate; transition: 2; reversible: partially reversible; structure 2V0U; whole UniProt chain shown
In the case of C450A, the Tm is reported as 63.5 °C and the “change of melting temperature, mutant” value is reported as 3.4 °C.

Same assay, conditions: Avena sativa; pH 9; Thermal; DSC; glycine; transition: 2; reversible: partially reversible; structure 2V0U; whole UniProt chain shown
For C450A, the Tm was 66 °C and the “change of melting temperature, mutant” value was 4.2 °C.

Same assay, conditions: Avena sativa; pH 9; Thermal; fluorescence; glycine; transition: 2; reversible: partially reversible; structure 2V0U; whole UniProt chain shown
For C450A, the Tm was 63.5 °C and the “change of melting temperature, mutant” value was 2.6 °C.
